In patent US20220081485A1 (BEIJING WISDOMAB BIOTECHNOLOGY, published 2022):
Positions count from the first letter of the chain named. Read-outs that look alike come from different tables or passages of the source.

T1: recombinant hIL4R-his (human IL-4R extracellular domain with C-terminal His tag) (human (Homo sapiens), UniProt P24394 26-232)
T1 construct: The tag was added at the C-terminus; The protein was expressed in HEK293 cells; also called huIL4R
T1 sequence: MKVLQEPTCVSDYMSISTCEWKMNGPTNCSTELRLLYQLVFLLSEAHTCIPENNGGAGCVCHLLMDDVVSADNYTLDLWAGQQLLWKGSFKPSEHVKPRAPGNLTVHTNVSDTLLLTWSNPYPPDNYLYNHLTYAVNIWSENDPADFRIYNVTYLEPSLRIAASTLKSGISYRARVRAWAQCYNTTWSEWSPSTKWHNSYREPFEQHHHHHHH

T2: coated recombinant IL4R antigen (Example 3.2) (human (Homo sapiens), UniProt P24394 26-232)
T2 sequence: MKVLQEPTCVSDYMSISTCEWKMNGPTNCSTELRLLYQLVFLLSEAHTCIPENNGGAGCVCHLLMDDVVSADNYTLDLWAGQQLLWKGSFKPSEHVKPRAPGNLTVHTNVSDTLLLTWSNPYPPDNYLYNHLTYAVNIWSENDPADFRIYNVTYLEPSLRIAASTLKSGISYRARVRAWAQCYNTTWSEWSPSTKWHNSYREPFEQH

T3: human IL-4R on cells (HEK-Blue IL-4/IL-13 cells, TF-1 cells, human PBMCs) (human, UniProt P24394 26-825)
T3 sequence (looked up): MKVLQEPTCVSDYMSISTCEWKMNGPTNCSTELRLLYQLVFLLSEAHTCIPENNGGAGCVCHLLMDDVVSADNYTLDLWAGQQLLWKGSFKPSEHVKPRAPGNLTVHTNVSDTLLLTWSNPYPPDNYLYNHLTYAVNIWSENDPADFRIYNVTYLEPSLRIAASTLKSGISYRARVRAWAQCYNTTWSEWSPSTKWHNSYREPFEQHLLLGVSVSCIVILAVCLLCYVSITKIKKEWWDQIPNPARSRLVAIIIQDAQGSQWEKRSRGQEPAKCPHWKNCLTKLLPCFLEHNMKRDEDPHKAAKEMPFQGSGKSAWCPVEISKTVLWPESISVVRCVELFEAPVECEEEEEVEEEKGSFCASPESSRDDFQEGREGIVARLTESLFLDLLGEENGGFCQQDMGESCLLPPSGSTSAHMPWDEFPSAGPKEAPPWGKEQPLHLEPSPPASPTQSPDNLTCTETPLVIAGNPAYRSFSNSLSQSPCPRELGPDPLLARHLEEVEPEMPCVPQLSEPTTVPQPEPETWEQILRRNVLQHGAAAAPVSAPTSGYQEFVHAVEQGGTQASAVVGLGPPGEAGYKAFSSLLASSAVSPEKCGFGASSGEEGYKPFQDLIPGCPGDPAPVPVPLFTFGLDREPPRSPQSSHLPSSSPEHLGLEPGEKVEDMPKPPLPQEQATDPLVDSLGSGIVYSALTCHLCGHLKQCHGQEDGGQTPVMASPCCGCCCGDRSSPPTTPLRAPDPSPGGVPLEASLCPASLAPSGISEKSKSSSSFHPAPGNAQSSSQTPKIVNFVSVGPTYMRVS

T4: mmIL4R-mFc (Macaca mulatta IL-4R extracellular domain fused to murine IgG2a Fc) (Macaca mulatta)
T4 chain: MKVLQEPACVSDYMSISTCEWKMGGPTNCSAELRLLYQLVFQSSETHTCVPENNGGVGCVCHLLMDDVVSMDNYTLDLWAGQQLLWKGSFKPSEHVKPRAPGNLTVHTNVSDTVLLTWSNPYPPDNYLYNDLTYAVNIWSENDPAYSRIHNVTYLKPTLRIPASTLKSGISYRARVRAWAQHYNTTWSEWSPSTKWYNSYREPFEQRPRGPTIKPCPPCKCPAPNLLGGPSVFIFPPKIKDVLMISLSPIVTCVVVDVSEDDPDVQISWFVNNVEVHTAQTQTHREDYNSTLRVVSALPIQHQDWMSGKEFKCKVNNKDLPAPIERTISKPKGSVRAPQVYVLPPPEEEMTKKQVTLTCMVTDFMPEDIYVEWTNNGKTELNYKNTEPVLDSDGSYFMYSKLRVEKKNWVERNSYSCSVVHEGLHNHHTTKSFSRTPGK

B1: S1H9 phage-scFv (scFv)
scFv: EVQLVESGGGLVQPGGSLRLSCAASGFTFSNYSMRWVRQAPGKGLEWVSFISASGSTKYYADSVKGRFTISRDNSKNTLYLQMNSLRAEDTAVYYCARKPTAPRSSALDYWGQGTLVTVSSGGGGSGGGGSGGGGSDIQMTQSPSSLSASVGDRVTITCRASQGVNNYLNWYQQKPGKAPKLLIYGASSRASGVPSRFSGSGSGTDFTLTISSLQPEDFATYYCQQRLSVPLTFGQGTKVEIK
notes: also called clone S1H9
B2: S1E6 phage-scFv (scFv)
scFv: EVQLVESGGGLVQPGGSLRLSCAVSGFTFSSYAMSWVRQAPGKGLEWVSSITGGGGGIYYADSVKGRFTISRDNSKNTVYLQMNSLRAEDTAVYYCAKDRISITIRPRYFGLDFWGQGTTVTVSSGGGGSGGGGSGGGGSDIVMTQSPLSLPVTPGEPASISCRSSRSVLYGNGYNYLDWYLQKSGQSPQLLIYLGTNVAAGVPDRFSGSGSGTDFTLKISRVEAEDVGFYYCMQSLRTPYTFGQGTKLEIK
notes: also called clone S1E6; S1E6 single chain antibody
B3: L28F8-IgG4 (antibody, V domains shown)
VH: EVQLVESGGGLVQPGGSLRLSCAVSGFTFSSYAMSWVRQAPGKGLEWVSSITGGGGGIYYADSVKGRFTISRDNSKNTVYLQMNSLRAEDTAVYYCAKDRISITIRPRYFGLDFWGQGTTVTVSS
VL: DIVMTQSPLSLPVTPGEPASISCRSSQNVVYGNGYNYLDWYLQKSGQSPQLLIYLGTNVAAGVPDRFSGSGSGTDFTLKISRVEAEDVGFYYCMQSLQAPYTFGQGTKLEIKR
notes: also called S1E6 light chain mutant L28F8
B4: L10B2-IgG4 (antibody, V domains shown)
VH: B3 VH
VL: DIVMTQSPLSLPVTPGEPASISCRSSHNLLYSNGYNYLDWYLQKPGQSPQLLIYLGSNRAYGVPDRFSGSGSGTDFTLKISRVEAEDVGVYHCMQALQSPYTFGQGTKVDIKR
notes: also called S1E6 light chain mutant L10B2
B5: L10C2-IgG4 (antibody, V domains shown)
VH: B3 VH
VL: DIVMTQSPLSLPVTAGAPASISCRSSQSLLYSNGYNYLDWYMQKPGQSPQLLIYLGSNRASGVPDRFSGSGSGTDFTLKISRVEAEDVGVYYCMQALETPYAFGQGTKVEIKR
notes: also called S1E6 light chain mutant L10C2
B6: L28G5-IgG4 (antibody, V domains shown)
VH: B3 VH
VL: B3 VL with Q27R, V30I, T57N
notes: also called S1E6 light chain mutant L28G5
B7: S1E6-IgG4 (antibody, V domains shown)
VH: B3 VH
VL: B3 VL with Q27R, N28S, V30L, Q98R, A99T
notes: also called monoclonal antibody S1E6
B8: S2C2 phage-scFv (scFv)
scFv: QVQLQQSGPGLVKPSQTLSLTCAISGDSVSSNNDAWNWIRQSPSRGLEWLGRTYYRSKWYNDYAVSLKGRITINPDTSKNQFSLHLNSVTPEDTAVYYCAKRDSSVGVGAMDVWSQGTTVTVSSGGGGSGGGGSGGGGSVIWMTQSPSSLSASVGDRVTITCRSSQYIGKYLNWYQYKKGQVPKLLIYAASSLRSGVPSRFSGRGSATEFTLTISNLQREDFATYYCQKYNAVPLTFGQGTKLEIK
notes: also called clone S2C2

What was measured:
[1] = target: T1, recombinant hIL4R-his (human IL-4R …); assay: solid phase phage display screening with hIL4R-his as antigen
[2] = target: T2, coated recombinant IL4R antigen …; assay: competition ELISA: phage-scFv at a fixed titer on coated recombinant IL4R, against a gradient of recombinant IL4; detected with HRP-anti-M13
[3] = target: T3, human IL-4R on cells (HEK-Blue …); assay: cell-based or functional assay
[4] = target: T3, human IL-4R on cells (HEK-Blue …); assay: cell-based or functional assay; remark: listed apart in the source
[5] = target: T3, human IL-4R on cells (HEK-Blue …); assay: cell-based or functional assay; remark: listed apart in the source
[6] = target: T4, mmIL4R-mFc (Macaca mulatta IL-4R …); assay: SPR Biacore X100, antibody captured, mmIL4R-mFc as analyte
Experimental: (§1) The affinity of each anti-IL4R IgG4 chimeric antibody was determined using Biacore X100. Amino coupling kits, human antibody capture kits, CM5 chips, 1× HBS-EP (pH 7.4) and all reagents used in this assay were purchased from GE Healthcare. According to the instructions in the kits, an antibody against the human Fc region was coupled to the surface of the CM5 chip using an amino coupling method, and antibody proteins were diluted to appropriate concentrations to ensure that about 100 RU of the antibodies was captured by the antibody against the human Fc. IL4R-his was set to a series of concentration gradients (100 nm, 33.3 nm, 11.1 nm, 3.7 nm, 1.23 nm) and flew through the surface of the stationary phase.
Similarly, anti-IL4R monoclonal antibodies were captured and mmIL4R-mFc was set to a series of concentration gradient (50 nm, 16.7 nm, 5.56 nm, […], 0.62 nm).

[7] = target: T1, recombinant hIL4R-his (human IL-4R …); assay: SPR Biacore X100, antibody captured by anti-human Fc, IL4R-his as analyte, 25 C
Experimental: as §1

[8] = target: T5, IL4R-mFc (human IL-4R extracellular domain fused to murine IgG2a Fc) (human (Homo sapiens)); assay: blocking ELISA: antibody gradient with IL4-his at a fixed concentration on coated IL4R-mFc; bound IL4-his detected with HRP-mouse-anti-his IgG
T5 construct: also called antigen IL4R-mFc
Experimental: (§2) 96 well plates were coated with antigen IL4R-mFc (3 μg/ml, 100 μI/well) overnight at 4° C.

[9] = target: T3, human IL-4R on cells (HEK-Blue …); assay: cell-based or functional assay; remark: listed apart in the source
[10] = target: T3, human IL-4R on cells (HEK-Blue …); assay: cell-based or functional assay; remark: listed apart in the source
[11] = target: T1, recombinant hIL4R-his (human IL-4R …); assay: SPR Biacore X100, antibody captured by anti-human Fc, IL4R-his as analyte, 25 C; remark: listed apart in the source
Experimental: as §1

[12] = target: T5, IL4R-mFc (human IL-4R extracellular …); assay: blocking ELISA: antibody gradient with IL4-his at a fixed concentration on coated IL4R-mFc; bound IL4-his detected with HRP-mouse-anti-his IgG; remark: listed apart in the source
Experimental: as §2

[13] = target: T3, human IL-4R on cells (HEK-Blue …); assay: cell-based or functional assay; remark: listed apart in the source

| Binder | binding result [1] | binding result [2] | Kd [6] [pM] | koff [6] [s⁻¹] | kon [6] [M⁻¹ s⁻¹] | Kd [7] [pM] | koff [7] [s⁻¹] | kon [7] [M⁻¹ s⁻¹] | IC50 (read off the curve) [8] [pM] | Kd [11] [pM] | koff [11] [s⁻¹] | kon [11] [M⁻¹ s⁻¹] | IC50 (read off the curve) [12] [pM] | further results |
| --- | --- | --- | --- | --- | --- | --- | --- | --- | --- | --- | --- | --- | --- | --- |
| B1 | binds | binds |  |  |  |  |  |  |  |  |  |  |  |  |
| B2 | binds | binds |  |  |  |  |  |  |  |  |  |  |  |  |
| B3 |  |  | 6930 | 0.00519 | 748000 | 420 | 0.000144 | 342000 | ~10000 |  |  |  |  | IC50 values in inhibition of IL-4 (SEAP, HEK-Blue IL-4/IL-13 cells) [3]: 55 pM; IC50 values in inhibition of IL-13 (SEAP, HEK-Blue IL-4/IL-13 cells) [4]: 12.1 pM; IC50 values in inhibition of IL-4 (IL-4 induced proliferation of TF-1 cells, CellTiter-Glo) [5]: 124 pM |
| B4 |  |  |  |  |  |  |  |  |  | 443 | 0.000152 | 343000 | ~7000 | IC50 values in inhibition of IL-4 (SEAP, HEK-Blue IL-4/IL-13 cells) [9]: 207 pM; IC50 values in inhibition of IL-13 (SEAP, HEK-Blue IL-4/IL-13 cells) [10]: 13.1 pM |
| B5 |  |  |  |  |  |  |  |  |  | 874 | 0.000309 | 353000 | ~8000 | fold of IC50 in inhibition of IL-4 against L10B2 (HEK-Blue IL-4/IL-13 cells) [13]: 1.6 fold; fold of IC50 in inhibition of IL-13 against L10B2 (HEK-Blue IL-4/IL-13 cells) [13]: 2.4 fold; IC50 values in inhibition of IL-4 (SEAP, HEK-Blue IL-4/IL-13 cells) [9]: 333 pM; IC50 values in inhibition of IL-13 (SEAP, HEK-Blue IL-4/IL-13 cells) [10]: 31.4 pM |
| B6 |  |  | 10400 | 0.00709 | 684000 | 464 | 0.000134 | 289000 | ~8000 |  |  |  |  | IC50 values in inhibition of IL-4 (SEAP, HEK-Blue IL-4/IL-13 cells) [3]: 48.4 pM; IC50 values in inhibition of IL-13 (SEAP, HEK-Blue IL-4/IL-13 cells) [4]: 11.5 pM; IC50 values in inhibition of IL-4 (IL-4 induced proliferation of TF-1 cells, CellTiter-Glo) [5]: 118 pM |
| B7 |  |  | 9300 | 0.0049 | 527000 | 2840 | 0.000709 | 249000 | ~20000 | 2950 | 0.000923 | 312000 | ~20000 |  |
| B8 | binds | binds |  |  |  |  |  |  |  |  |  |  |  |  |
